According to paper PMC5374420, “In Search of Small Molecule Inhibitors Targeting the Flexible CK2 Subunit Interface” (Pharmaceuticals, 2017):

Molecular target: T1, CK2α of MCF-10A cells (human (endogenous in MCF-10A), UniProt P68400 1-391)
T1 construct: protein kinase CK2 catalytic subunit alpha, endogenous; also called free CK2α subunit; source: endogenous, MCF-10A cells and cell extracts (WT or CK2β-depleted)
Test: thermal shift assay in cell lysates; CK2β-depleted MCF-10A cell lysates (50 mM Tris-HCl pH 7.5, 150 mM NaCl, 2% glycerol) with 50 µM TAT or TAT-Pc 13, or PBS or CK2β, 30 min at room temperature; aliquots heated 3 min; CK2 activity of the supernatants
Details: one partner purified

T1 sequence (P68400 whole entry): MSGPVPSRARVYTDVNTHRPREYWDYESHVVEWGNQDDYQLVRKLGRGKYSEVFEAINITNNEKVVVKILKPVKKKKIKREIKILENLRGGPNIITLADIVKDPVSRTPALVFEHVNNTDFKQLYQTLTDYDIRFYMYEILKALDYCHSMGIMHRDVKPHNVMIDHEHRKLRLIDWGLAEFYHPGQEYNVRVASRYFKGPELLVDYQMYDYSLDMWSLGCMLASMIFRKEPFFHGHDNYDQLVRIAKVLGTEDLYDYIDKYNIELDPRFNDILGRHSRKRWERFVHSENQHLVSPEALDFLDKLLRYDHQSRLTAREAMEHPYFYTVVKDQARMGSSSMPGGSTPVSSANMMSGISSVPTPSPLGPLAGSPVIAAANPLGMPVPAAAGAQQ

B1: recombinant CK2β (natural protein)
chain: not shown
notes: protein kinase CK2 regulatory subunit beta; also called protein kinase CK2 regulatory β subunit
For B1, the “shift of the melting curve” value was 3 °C.
